In article PMC9441902:

Target: LrsL (quorum quenching lactonase of Labrenzia sp. VG12), recombinant catalytic domain without the N-terminal 47 residues (Labrenzia sp. VG12)
Test: SEC-MALS; Superdex 200 10/300; 5.5 mg/ml LrsL injected; 20 mM HEPES, pH 7.5, 200 mM NaCl, 1 mM TCEP, 0.01% NaN3

stoichiometry N: 2
Substance: LrsL (quorum quenching lactonase of Labrenzia sp. VG12), recombinant catalytic domain without the N-terminal 47 residues (enzyme)
